From publication PMC4753422

Biological target: papain (UniProt P00784)
Assay: enzyme inhibition kinetics (papain proteolysis progress curves); anti-papain activity from papain proteolysis progress curves with the fluorigenic substrate Z-Phe-Arg-methylcoumarin; apparent (said of the Cysta-tag's constant)

Chain of UniProt P00784 (P00784 134-345): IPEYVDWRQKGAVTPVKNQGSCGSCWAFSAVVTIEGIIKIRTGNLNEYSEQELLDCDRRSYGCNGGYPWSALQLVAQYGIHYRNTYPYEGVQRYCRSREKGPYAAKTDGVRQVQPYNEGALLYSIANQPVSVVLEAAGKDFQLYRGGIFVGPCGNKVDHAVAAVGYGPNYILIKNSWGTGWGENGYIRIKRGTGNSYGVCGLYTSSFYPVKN

Row | Kd | Substance
1 | 0.042 µM | Cysta-tag (Ala-62-(His)6-Gly-63 variant of SlCYS8) (domain or fragment)
2 | 0.043 µM | tomato multicystatin domain SlCYS8 (domain or fragment)
